According to US20230159646A1 (IBIO, published 2023):

How the values were obtained:
[1] = molecular target: T1, CD25 (as used in the Carterra LSA kinetics; species and construct not stated) (Homo sapiens (Human), UniProt P01589 22-240); experiment: Carterra LSA kinetics
T1 sequence: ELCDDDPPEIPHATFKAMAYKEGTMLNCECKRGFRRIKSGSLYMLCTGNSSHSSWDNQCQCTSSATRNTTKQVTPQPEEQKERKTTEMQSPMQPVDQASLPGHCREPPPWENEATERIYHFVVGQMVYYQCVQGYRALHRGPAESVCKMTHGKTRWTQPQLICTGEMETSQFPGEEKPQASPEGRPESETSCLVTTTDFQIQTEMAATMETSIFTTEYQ

[2] = molecular target: T1, CD25 (as used in the Carterra LSA …); experiment: Carterra LSA kinetics; KD SD 1.27 nM
[3] = molecular target: T2, mouse CD25 (immobilized, ELISA) (mouse, UniProt P01590 22-236, limits assumed); experiment: ELISA, immobilized mouse CD25 (N/A in the 14th table, row 10, column 6)
T2 construct: also called immobilized mouse CD25
T2 sequence (looked up): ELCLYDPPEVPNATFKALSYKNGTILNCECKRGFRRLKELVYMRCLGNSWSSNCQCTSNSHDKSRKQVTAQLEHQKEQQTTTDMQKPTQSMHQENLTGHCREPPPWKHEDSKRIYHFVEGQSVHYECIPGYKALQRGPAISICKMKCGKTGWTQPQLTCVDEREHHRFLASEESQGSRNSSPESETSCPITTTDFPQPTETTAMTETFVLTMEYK

[4] = molecular target: T3, human CD25 (Sino Biologicals, 10165-H08H) (human, UniProt P01589 22-213); experiment: ELISA, immobilized human CD25; average of n>=3, SD 3.2
T3 construct: Bought recombinant protein coated on ELISA plates; also called immobilized human CD25; IL2RA
T3 sequence (looked up): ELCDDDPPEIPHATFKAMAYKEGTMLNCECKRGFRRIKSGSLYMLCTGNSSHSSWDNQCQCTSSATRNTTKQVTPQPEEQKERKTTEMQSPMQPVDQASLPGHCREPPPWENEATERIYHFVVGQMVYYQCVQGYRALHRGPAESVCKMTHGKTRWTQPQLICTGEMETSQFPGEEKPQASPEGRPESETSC

[5] = molecular target: T4, CD25 endogenously expressed on SUDHL-1 human lymphoma cell line and on induced human Treg (iTreg) (human, UniProt P01589 22-272); experiment: flow cytometry, SUDHL-1 cells; average of n>=6, SD 38.12
T4 construct: whole, on cells; also called CD25 on SUDHL-1 and iTreg; CD25 expressing SUDHL-1
T4 sequence (looked up): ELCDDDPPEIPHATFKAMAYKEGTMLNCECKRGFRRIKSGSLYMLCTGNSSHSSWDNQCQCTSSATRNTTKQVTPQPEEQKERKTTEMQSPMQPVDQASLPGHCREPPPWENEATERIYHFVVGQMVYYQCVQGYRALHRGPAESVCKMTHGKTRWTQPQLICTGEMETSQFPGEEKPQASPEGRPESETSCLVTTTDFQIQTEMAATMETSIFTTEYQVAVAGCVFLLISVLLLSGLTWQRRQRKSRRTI

[6] = molecular target: T5, cynomolgus CD25 (Sino Biologicals, 90265-C08H) (cynomolgus, UniProt H6WS54 22-213); experiment: ELISA, immobilized cynomolgus CD25; average of n>=3, SD 9.8
T5 construct: Bought recombinant protein coated on ELISA plates; also called immobilized cynomolgus CD25; cynos monkey CD25
T5 sequence: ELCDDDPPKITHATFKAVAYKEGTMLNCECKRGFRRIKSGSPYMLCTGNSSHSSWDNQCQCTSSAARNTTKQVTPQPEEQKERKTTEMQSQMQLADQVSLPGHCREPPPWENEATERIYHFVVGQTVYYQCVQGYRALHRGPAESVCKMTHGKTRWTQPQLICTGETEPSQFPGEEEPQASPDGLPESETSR

[7] = molecular target: T4, CD25 endogenously expressed on SUDHL-1 …; experiment: flow cytometry, human iTreg cells; average of n=3, SD 83.94
[8] = molecular target: T1, CD25 (as used in the Carterra LSA …); experiment: Carterra LSA kinetics; KD SD 1.03 nM
[9] = molecular target: T2, mouse CD25 (immobilized, ELISA); experiment: ELISA, immobilized mouse CD25 (N/A in the 14th table, row 8, column 6)
[10] = molecular target: T3, human CD25 (Sino Biologicals, …); experiment: ELISA, immobilized human CD25; average of n>=3, SD 2.5
[11] = molecular target: T4, CD25 endogenously expressed on SUDHL-1 …; experiment: flow cytometry, SUDHL-1 cells; average of n>=6, SD 39.9
[12] = molecular target: T4, CD25 endogenously expressed on SUDHL-1 …; experiment: flow cytometry, human iTreg cells; average of n=3, SD 40.50
[13] = molecular target: T5, cynomolgus CD25 (Sino Biologicals, …); experiment: ELISA, immobilized cynomolgus CD25; average of n>=3, SD 12.3
[14] = molecular target: T2, mouse CD25 (immobilized, ELISA); experiment: ELISA, immobilized mouse CD25 (N/A in the 14th table, row 9, column 6)
[15] = molecular target: T2, mouse CD25 (immobilized, ELISA); experiment: ELISA, immobilized mouse CD25 (N/A in the 14th table, row 7, column 6)

B1: IBIO-101-plant-afuc (SD-889825-PC-A; IBIO-101, c-105 plant Afucosylated) (antibody, human IgG1, kappa, V domains shown)
VH: QVQLVQSGAEVKKPGASLKISCKGSGYTFTDYAMHWVRQAPGQGLEWIGVISTYSGDAIYAQKFQGRATMTVDTSTSTAYLELSSLRSEDTAVYYCARGVTFDYWGQGTTVTVSS
VL: DIQMTQSPSSLSASVGDRVTITCRASQDISNYLEWYQQKPGKAPKLLVYNAKTLAEGVPSRFSGSGSGTDFTLTISSLQPEDFGTYYCQHHYDTPYTFGQGTKLEIKR
modifications: afucosylated glycan (made in C105 dXT/FT plants deficient in fucosylation and xylosylation)
notes: Signal peptide of the entries is not part of the mature antibody; Human IgG1 constant region, afucosylated; also called RTX-003; hD11
[1]
  koff: 0.00207 s⁻¹
  kon: 492000 M⁻¹ s⁻¹
[2]
  Kd: 4.27 nM
[3]
  binding result: no binding (tested: 10 µg/mL)
[4]
  EC50: 0.0174 µg/mL
[5]
  EC50: 0.123 µg/mL
[6]
  EC50: 0.0424 µg/mL
[7]
  EC50: 0.218 µg/mL

B2: IBIO-101-CHO-afuc (SD-889825-CG-A; IBIO-101, CHO cells Afucosylated) (antibody, human IgG1, kappa, V domains shown)
VH: B1 VH
VL: B1 VL
modifications: afucosylated glycan (as printed: afucosylated)
notes: signal peptide of the entries is not part of the mature antibody; Human IgG1 constant region, afucosylated; also called RTX-003; hD11
[1]
  koff: 0.00119 s⁻¹
  kon: 499000 M⁻¹ s⁻¹
[8]
  Kd: 3.9 nM
[9]
  binding result: no binding (tested: 10 µg/mL)
[10]
  EC50: 0.0156 µg/mL
[11]
  EC50: 0.126 µg/mL
[12]
  EC50: 0.219 µg/mL
[13]
  EC50: 0.0431 µg/mL

B3: IBIO-101-plant-WT (SD-889825-PW-A; IBIO-101, wild-type plant) (antibody, human IgG1, kappa, V domains shown)
VH: B1 VH
VL: B1 VL
notes: Signal peptide of the entries is not part of the mature antibody; Made in wild-type Nicotiana benthamiana; human IgG1 constant region; also called RTX-003; hD11
[14]
  binding result: no binding (tested: 10 µg/mL)

B4: IBIO-101-CHO-WT (SD-889825-CW-A; IBIO-101, wild-type CHO cells) (antibody, human IgG1, kappa, V domains shown)
VH: B1 VH
VL: B1 VL
notes: the entries carry the plant extensin signal peptide, which is not part of the mature antibody; Human IgG1 constant region, fucosylated (WT); also called RTX-003; hD11
[15]
  binding result: no binding (tested: 10 µg/mL)
